Laboratory results from PMC6969876, “NADPH biosensor-based identification of an alcohol dehydrogenase variant with improved catalytic properties caused by a single charge reversal at the protein surface” (AMB Express, 2020).

Target: the molecule itself
Experiment: SEC; Superdex 200 increase 10/300 GL, buffer A (50 mM triethanolamine hydrochloride, 1 mM MgCl2, pH 7.0), 0.75 mL/min; apparent native mass from a calibration curve with carbonic anhydrase, bovine serum albumin, alcohol dehydrogenase and beta-amylase; affinity-purified protein loaded

B1: NADPH-dependent alcohol dehydrogenase of Lactobacillus brevis, wild type (LbADH^WT), with N-terminal Strep-tag II (enzyme, UniProt Q84EX5 1-252, looked up)
chain: MSNRLDGKVAIITGGTLGIGLAIATKFVEEGAKVMITGRHSDVGEKAAKSVGTPDQIQFFQHDSSDEDGWTKLFDATEKAFGPVSTLVNNAGIAVNKSVEETTTAEWRKLLAVNLDGVFFGTRLGIQRMKNKGLGASIINMSSIEGFVGDPSLGAYNASKGAVRIMSKSAALDCALKDYDVRVNTVHPGYIKTPLVDDLPGAEEAMSQRTKTPMGHIGEPNDIAYICVYLASNESKFATGSEFVVDGGYTAQ
notes: NADPH-dependent (R-specific) alcohol dehydrogenase of Lactobacillus brevis; 251 amino acid residues and 26.6 kDa per subunit as printed; calculated mass of the monomer with StrepTag-II 28.2 kDa; The plasmid pASK-IBA5plus-Lbadh^WT was a gift (Prof. W. Kroutil); not shown: Strep-tag II, N-terminal, kept
stoichiometry N: 4
